Measured values taken from patent US20100061996A1 (Genentech, published 2010).

Tests used:
[1] = biological target: T1, soluble His-tagged hepsin comprising the entire extracellular domain of human hepsin (Arg45-Leu417) (human, UniProt P05981 45-417); experiment: enzyme inhibition, 0.5 nM hepsin, chromogenic substrate S2366; apparent Ki (Ki*) from tight-binding fit
T1 construct: range 45-417; also called soluble hepsin; recombinant soluble hepsin; not shown: His tag
Protocol: (§1) After substrate addition, the linear rates of the increase in absorbance at 405 nm was measured on a kinetic microplate reader (Molecular Devices, Sunnyvale, Calif.).

[2] = biological target: T2, matriptase protease domain (UniProt Q9Y5Y6 615-855, limits assumed); experiment: enzyme inhibition, 0.5 nM matriptase, chromogenic substrate S2765; apparent Ki (Ki*) from tight-binding fit
T2 construct: domain: protease domain
T2 sequence (looked up): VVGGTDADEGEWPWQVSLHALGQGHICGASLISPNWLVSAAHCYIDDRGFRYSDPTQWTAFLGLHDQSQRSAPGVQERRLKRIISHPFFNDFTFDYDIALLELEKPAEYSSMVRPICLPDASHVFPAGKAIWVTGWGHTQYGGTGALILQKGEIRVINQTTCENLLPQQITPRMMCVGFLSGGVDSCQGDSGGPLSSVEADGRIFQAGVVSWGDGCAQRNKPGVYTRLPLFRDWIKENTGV
Protocol: as §1

T1 sequence (P05981 45-417 limits assumed): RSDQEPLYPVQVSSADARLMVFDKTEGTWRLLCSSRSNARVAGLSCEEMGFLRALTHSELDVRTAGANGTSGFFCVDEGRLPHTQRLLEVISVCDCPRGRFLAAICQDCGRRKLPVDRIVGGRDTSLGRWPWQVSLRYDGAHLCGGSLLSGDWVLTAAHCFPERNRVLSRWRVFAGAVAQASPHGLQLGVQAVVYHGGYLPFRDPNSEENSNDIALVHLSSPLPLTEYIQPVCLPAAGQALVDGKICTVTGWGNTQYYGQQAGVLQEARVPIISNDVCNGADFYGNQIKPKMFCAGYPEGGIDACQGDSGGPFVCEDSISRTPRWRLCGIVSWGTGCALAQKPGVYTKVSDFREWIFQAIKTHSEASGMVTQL

B1: soluble HAI-2 (hepatocyte growth factor activator inhibitor-2) (other, UniProt O43291 28-197, looked up)
chain: ADRERSIHDFCLVSKVVGRCRASMPRWWYNVTDGSCQLFVYGGCDGNSNNYLTKEECLKKCATVTENATGDLATSRNAADSSVPSAPRRQDSEDHSSDMFNYEEYCTANAVTGPCRASFPRWYFDVERNSCNNFIYGGCRGNKNSYRSEEACMLRCFRQQENPPLPLGSK
Ki [1]: 260 pM | Ki [2]: 850 pM
